Source: doi:10.1101/2024.06.06.597810 (bioRxiv, 2024)

Molecular target: T1, SARS-CoV-2 spike stem helix peptide (residues 1146-1159), displayed on yeast (SARS-CoV-2)
T1 chain: DSFKEELDKYFKNH
Test: flow cytometry on cells
Details: partners not purified

B1: S2P6 VH E1Q/VL E105D in scFv format (scFv, V domains shown)
VH: QVQLVQSGAEVKKPGASVKVSCKASGYTFTSQYMHWVRQAPGQGLEWIGIINPSGVHTSYAQKFQGRVTLTRDTSTSTLYMELSSLRSEDTAVYYCARGSPKGAFDYWGQGTLVTVSS
VL: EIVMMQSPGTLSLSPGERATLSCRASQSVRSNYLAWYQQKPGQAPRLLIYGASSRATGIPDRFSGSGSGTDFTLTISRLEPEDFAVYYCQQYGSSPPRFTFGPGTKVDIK
notes: not shown: HA, C-terminal, kept
B1: binds.
